# In publication PMC3753634:
# T1: ArpU (phage phiFL2A late transcriptional regulator) (Enterococcus faecalis phage phiFL2A, UniProt D2IZF3 1-155)
# T1 sequence: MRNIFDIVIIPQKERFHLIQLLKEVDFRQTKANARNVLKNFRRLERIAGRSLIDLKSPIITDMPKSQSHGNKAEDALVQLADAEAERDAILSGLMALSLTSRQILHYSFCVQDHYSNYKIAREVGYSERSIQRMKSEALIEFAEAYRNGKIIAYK
# T2: LtrC (phage phi55 ORF34) (Staphylococcus aureus phage phi55, UniProt Q4ZB49 1-133)
# T2 sequence: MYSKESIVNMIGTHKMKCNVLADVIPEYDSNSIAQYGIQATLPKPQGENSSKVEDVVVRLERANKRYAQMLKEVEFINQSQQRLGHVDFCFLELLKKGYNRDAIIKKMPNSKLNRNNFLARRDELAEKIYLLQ
# Experiments:
# [1] = molecular target: T1, ArpU (phage phiFL2A late …); assay: EMSA
# LtrC (phage phi55 ORF34) = molecular target: T2, LtrC (phage phi55 ORF34); assay: EMSA
binder,measurement,setting,value
ArpU wt probe (phiFL2A repeat region) (dsDNA) DNA 1: TAATTTTGGCGGTTTTTGGCGGAAAGTTGGCGGTTTTATACGAATTTGAGTGCTAATATAGTAATATCGAAAG DNA 2: CTTTCGATATTACTATATTAGCACTCAAATTCGTATAAAAACCGCCAACTTTCCGCCAAAAAACCGCAAAATTA,binding result,[1],binds
"LtrC wt probe (phi55 repeat region, ORF34wt) (dsDNA) DNA 1: TTGGCAGAAAAGATTTATCTACTACAGTGACGAAAATGACAAAATGACAGAAATGACGAAAATGACACTATTTTTAAACTGTGAATTAATTTTATATA DNA 2: TATATAAAATTAATTCACAGTTTAAAAATAGTGTCATTTTCGTCATTTCTGTCATTTTGTCATTTTCGTCACTGTAGTAGATAAATCTTTTCTGCCAA",binding result,LtrC (phage phi55 ORF34),binds
